In patent US20230121197A1, “ANTIBODIES SPECIFICALLY BINDING THE CARBOXYMETHYLATED CATALYTIC SUBUNIT OF PROTEIN PHOSPHATASE 2A” (Medizinische Universität Wien, priority 2020, published 2023):
No end group written: not given here.

Columns and labels:
[1] = target: T1, PP2Ac C-terminal peptide meL309, ac-HVTRRTPDYFL-CH3 (α-carboxymethylated) (human, SMILES …); assay: SPR (Biacore T200), antibody captured by anti-mouse IgG on CM5 chip, peptide 5-160 nM as analyte, steady state analysis, 25 °C
T1 construct: also called Y307-meL309; mePP2Ac
T1 peptide: Ac-HVTRRTPDYFL-OMe
Procedure: The differential affinity of anti-carboxymethylated PP2Ac antibodies, 7C10-C5 and 2A10, to carboxymethylated PP2A catalytic subunit versus noncarboxymethylated PP2A catalytic subunit was determined by surface plasmon resonance (SPR) on a Biacore T200 (GE Healthcare) at the Core Facility Biomolecular & Cellular Analysis (University of Natural Resources and Life Sciences Vienna BOKU). The affinity of 7C10-C5 for carboxymethylated and noncarboxymethylated catalytic subunit of PP4 (PP4c), a PP2A-related phosphatase, was also determined.
Series S Sensor Chip CM5 (GE Healthcare, 10296958) Flow cells (e.g. Flow cells 3 and 4 for the data shown in Table 5 and FIG. 32) were coated with 30 μg/mL anti-mouse IgG antibody (in immobilization buffer) using the mouse antibody capture kit (GE Healthcare, BR-1008-38, Lot 10294578) via amine coupling according to the manufacturer's protocol (i.e. https://www.cytivalifesciences. com/en/us/shop/protein-analysis/spr-lab el-free-analysis/capture-reagents/mouse-antibody-capture-kit-p-05986). The immobilisation levels obtained were 11620.2 RU (Flow cell 1), 10836.5 RU (Flow cell 2), 11605.9 RU (Flow cell 3) and 11333.9 RU (Flow cell 4), and thus were within the specifications. […]
SPR experiments were performed with the BiacoreT200 instrument (Cytiva). […] The sensorgrams obtained were analyzed with BiacoreT200 Evaluation Software (version 3.1).

[2] = target: T2, mouse HA PP4c, carboxymethylated (immunoprecipitated from NIH3T3 cells) (mouse) (UniProt P97470); assay: Western blot quantification, signal normalized to HA level, HA-PP2A set to 1, N=3
T2 sequence (C-terminal leucine α-carboxyl methyl ester (cellular methylation), looked up): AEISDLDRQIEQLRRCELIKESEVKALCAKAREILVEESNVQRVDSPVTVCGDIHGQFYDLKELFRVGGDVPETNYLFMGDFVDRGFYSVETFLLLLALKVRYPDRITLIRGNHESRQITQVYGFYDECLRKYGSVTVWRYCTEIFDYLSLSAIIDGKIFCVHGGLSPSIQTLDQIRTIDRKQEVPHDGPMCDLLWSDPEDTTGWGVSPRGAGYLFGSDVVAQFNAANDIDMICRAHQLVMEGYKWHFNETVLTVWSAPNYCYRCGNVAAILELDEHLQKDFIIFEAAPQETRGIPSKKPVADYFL

[3] = target: T3, PP6c C-terminal peptide meL305, ac-IPPRTTTPYFL-CH3 (α-carboxymethylated) (human, SMILES …); assay: ELISA, values normalized to meL309, Neg = TBS only, N=7
T3 construct: also called PP6 meLeu305
T3 peptide: Ac-IPPRTTTPYFL-OMe
Excerpt: (§1) FIG. 9: Monoclonal antibody 7C10-C5 detects α-carboxymethylated PP2Ac C-terminal peptides with >10-fold higher signal intensity than the α-carboxymethylated PP4c and PP6c C-terminal peptides in ELISA. Nunc Medisorp 96-well ELISA flat-bottom plates were coated with PP2Ac peptides L309 (ac-[…]) (SEQ ID NO:18), meL309 (ac-[…]-CH3) (SEQ ID NO:18), PP4c peptides L307 (ac-[…]) (SEQ ID NO:20), meL307 (ac-[…]-CH₃) (SEQ ID NO:20), PP6c peptides L305 (ac-[…]) (SEQ ID NO:22) or meL305 (ac-[…]-CH₃) (SEQ ID NO:22) at 2 μg/ml in TBS or TBS only (Neg) at 4° C. over-night. After washing once with TBS, the wells were incubated with 2% BSA in TBS for 1 h at RT. After washing once with TBS, the wells were incubated with single clone hybridoma cell culture supernatant, clone 7C10-C5 1:50 for 1 h at RT. After washing twice with TBS, wells were incubated with anti-mouse and anti rabbit HRP-coupled secondary antibody for 1 h at RT, followed by washing 3× in PBS. Bound antibodies were detected by colorimetric reaction with 3,3′,5,5′-Tetramethylbenzidine as substrate, and absorbance was measured at 450 nm. Values were normalized to meL309 which was set to 1. Average and standard deviation of N=7 experiments are shown. […] Statistical significance was assessed using ANOVA followed by Tukey's HSD as a post-hoc test. […]

[4] = target: T4, PP6c C-terminal peptide L305, ac-IPPRTTTPYFL (non-methylated) (human); assay: as above
T4 construct: also called PP6 L305
T4 peptide: Ac-IPPRTTTPYFL
Excerpt: as §1

B1: 7C10-C5 monoclonal antibody (antibody, V domains shown)
VH: DVQLQESGPGLVKPSQSLSLTCSVTGYSITSGYYWNWIRQFPGNKLEWMGYISYDGSNNYNPSLKNRISITRDTSKNQFFLKLNSVTTEDTATYYCAGRFAYWGQGTLVTVSA
VL: DVLMTQTPLSLPVSLGDQASISCRSSQSIVHSNGNTYLEWYLQKPGQSPKLLIYKVSNRFSGVPDRFSGSGSGTDFTLKINRVEAEDLGVYYCFQGSHVPWTFGGGTKLEIK
notes: Used as hybridoma culture supernatant (ELISA, Western blot, IHC) or at 50 µg/mL (SPR); also called 7C10 X63; clone 7C10-C5
Kd [1]: 11 nM | 7C10/HA blot signal relative to HA-PP2A = 1 [2]: 0.01 7C10/HA | binding result [3]: no binding | binding result [4]: no binding
